Experiment [1] deals with HLA-A*01:01. Nature of the experiment: IEDB peptide-MHC binding, purified MHC/competitive/fluorescence; filed as Kd, often an IC50 or EC50 that approximates it; ≥ and ≤ were set here for values at or beyond the usual limits of such assays. The settings on record: source organism: Mycobacterium tuberculosis variant bovis BCG str. Pasteur 1173P2.
Experiment [2] addresses HLA-A*02:01. The experiment is described as above. The settings on record: source organism: Mycobacterium tuberculosis variant bovis BCG str. Pasteur 1173P2.
The target in experiment [3] is HLA-A*02:03. The description is as above. The settings on record: source organism: Mycobacterium tuberculosis variant bovis BCG str. Pasteur 1173P2.
The target of another experiment is HLA-A*02:06. Described as above. To be noted: source organism: Mycobacterium tuberculosis variant bovis BCG str. Pasteur 1173P2.
Experiment [4] has as its target HLA-A*03:01. Described as above. To be noted: source organism: Mycobacterium tuberculosis variant bovis BCG str. Pasteur 1173P2.
Experiment [5] deals with HLA-A*11:01. Described as above. The settings on record: source organism: Mycobacterium tuberculosis variant bovis BCG str. Pasteur 1173P2.
Another experiment has as its target HLA-A*30:01. The experiment is described as above. The settings on record: source organism: Mycobacterium tuberculosis variant bovis BCG str. Pasteur 1173P2.
The target in experiment [6] is HLA-A*31:01. The description is as above. To be noted: source organism: Mycobacterium tuberculosis variant bovis BCG str. Pasteur 1173P2.
Experiment [7] concerns the target HLA-A*69:01. The description is as above. To be noted: source organism: Mycobacterium tuberculosis variant bovis BCG str. Pasteur 1173P2.
The target of experiment [8] is HLA-B*15:01. The description is as above. The settings on record: source organism: Mycobacterium tuberculosis variant bovis BCG str. Pasteur 1173P2.
The target of another experiment is HLA-B*15:09. The description is as above. To be noted: source organism: Mycobacterium tuberculosis variant bovis BCG str. Pasteur 1173P2.
In the next experiment the target is HLA-B*15:17. Described as above. To be noted: source organism: Mycobacterium tuberculosis variant bovis BCG str. Pasteur 1173P2.
Another experiment deals with HLA-B*15:42. The description is as above. To be noted: source organism: Mycobacterium tuberculosis variant bovis BCG str. Pasteur 1173P2.
Another experiment has as its target HLA-B*18:01. The description is as above. The settings on record: source organism: Mycobacterium tuberculosis variant bovis BCG str. Pasteur 1173P2.
The target in experiment [9] is HLA-B*27:05. The experiment is described as above. The settings on record: source organism: Mycobacterium tuberculosis variant bovis BCG str. Pasteur 1173P2.
The next experiment concerns the target HLA-B*35:01. The description is as above. To be noted: source organism: Mycobacterium tuberculosis variant bovis BCG str. Pasteur 1173P2.
The next experiment concerns the target HLA-B*39:01. The description is as above. To be noted: source organism: Mycobacterium tuberculosis variant bovis BCG str. Pasteur 1173P2.
Experiment [10] concerns the target HLA-B*40:01. The description is as above. To be noted: source organism: Mycobacterium tuberculosis variant bovis BCG str. Pasteur 1173P2.
The next experiment concerns the target HLA-B*45:06. Described as above. To be noted: source organism: Mycobacterium tuberculosis variant bovis BCG str. Pasteur 1173P2.
Another experiment has as its target HLA-B*46:01. The experiment is described as above. The settings on record: source organism: Mycobacterium tuberculosis variant bovis BCG str. Pasteur 1173P2.
The target of another experiment is HLA-B*48:01. The description is as above. The settings on record: source organism: Mycobacterium tuberculosis variant bovis BCG str. Pasteur 1173P2.
Another experiment addresses HLA-B*51:01. Described as above. The settings on record: source organism: Mycobacterium tuberculosis variant bovis BCG str. Pasteur 1173P2.
In another experiment the target is HLA-B*57:01. The description is as above. The settings on record: source organism: Mycobacterium tuberculosis variant bovis BCG str. Pasteur 1173P2.
Experiment [11] addresses HLA-B*58:01. The description is as above. The settings on record: source organism: Mycobacterium tuberculosis variant bovis BCG str. Pasteur 1173P2.
For a further experiment, the target named is HLA-B*83:01. The experiment is described as above. The settings on record: source organism: Mycobacterium tuberculosis variant bovis BCG str. Pasteur 1173P2.
In the next experiment the target is HLA-B*52:01. As to the kind of experiment: IEDB peptide-MHC binding, purified MHC/competitive/radioactivity; filed as Kd, often an IC50 or EC50 that approximates it; ≥ and ≤ were set here for values at or beyond the usual limits of such assays. To be noted: source organism: Homo sapiens.
The target of experiment [12] is HLA-A*01:01. As to the kind of experiment: IEDB peptide-MHC binding, purified MHC/direct/fluorescence; filed as Kd, often an IC50 or EC50 that approximates it; ≥ and ≤ were set here for values at or beyond the usual limits of such assays. To be noted: source organism: Brucella abortus.
The target of experiment [13] is HLA-A*02:01. Described as above. To be noted: source organism: Brucella abortus.
For experiment [14], the target named is HLA-A*02:03. The description is as above. To be noted: source organism: Brucella suis 1330.
The next experiment addresses HLA-A*02:11. The experiment is described as above. To be noted: source organism: Brucella suis 1330.
The target of the next experiment is HLA-A*02:12. The experiment is described as above. The settings on record: source organism: Brucella suis 1330.
In the next experiment the target is HLA-A*02:19. The description is as above. To be noted: source organism: Brucella suis 1330.
For experiment [15], the target named is HLA-A*03:01. The description is as above. The settings on record: source organism: Brucella abortus.
Experiment [16] deals with HLA-A*11:01. The description is as above. To be noted: source organism: Brucella abortus.
The next experiment addresses HLA-A*26:01. Described as above. The settings on record: source organism: Brucella suis 1330.
The target in experiment [17] is HLA-A*31:01. The experiment is described as above. The settings on record: source organism: Brucella abortus.
The target of experiment [18] is HLA-A*69:01. The description is as above. The settings on record: source organism: Brucella abortus.
The target in another experiment is HLA-B*07:02. The description is as above. To be noted: source organism: Brucella abortus.
The target of a further experiment is HLA-B*08:01. The experiment is described as above. To be noted: source organism: Brucella suis 1330.
In experiment [19] the target is HLA-B*15:01. Described as above. The settings on record: source organism: Brucella abortus.
Experiment [20] deals with HLA-B*27:05. Described as above. The settings on record: source organism: Brucella abortus.
For experiment [21], the target named is HLA-B*40:01. The experiment is described as above. To be noted: source organism: Brucella abortus.
In a further experiment the target is HLA-B*44:02. The description is as above. The settings on record: source organism: Brucella abortus.
For experiment [22], the target named is HLA-B*58:01. The experiment is described as above. To be noted: source organism: Brucella abortus.
The target in a further experiment is HLA-C*12:03. The experiment is described as above. To be noted: source organism: Brucella abortus bv. 1 str. 9-941.
Another experiment deals with HLA-B*40:02. Nature of the experiment: IEDB peptide-MHC binding, cellular MHC/competitive/fluorescence; ≥ and ≤ were set here for values at or beyond the usual limits of such assays. To be noted: source organism: Homo sapiens.
The target in experiment [23] is HLA-A*02:01. The experiment is described as above. The settings on record: source organism: Homo sapiens.
Experiment [24] concerns the target HLA-B*27:05. Nature of the experiment: IEDB peptide-MHC binding, purified MHC/competitive/fluorescence; ≥ and ≤ were set here for values at or beyond the usual limits of such assays. The settings on record: source organism: hepatitis C virus genotype 1a.

The term Kd denotes the concentration at which binding is half-saturated. One may read the IC50 as the concentration that gives 50% inhibition. Low values mean inhibition by little substance, high ones a need for much substance.

KPIPHRTVL: the Kd in the experiment with HLA-A*01:01 [1] is 570 nM; in the experiment with HLA-A*02:01 [2] it was not below 20000 nM; with HLA-A*02:03 [3] it was not below 20000 nM; in the experiment with HLA-A*02:06, 2830 nM; in the experiment with HLA-A*03:01 [4] it was 2290 nM; with HLA-A*11:01 [5] it was 125 nM. Further, the Kd with HLA-A*30:01 was 763 nM; with HLA-A*31:01 [6], not below 20000 nM; with HLA-A*69:01 [7], not below 20000 nM; in the experiment with HLA-B*15:01 [8], not below 20000 nM; with HLA-B*15:09, 1320 nM; with HLA-B*15:17, not below 20000 nM. The Kd with HLA-B*15:42 was not below 5000 nM; in the experiment with HLA-B*18:01 it was not below 20000 nM; in the experiment with HLA-B*27:05 [9] it was not below 20000 nM; in the experiment with HLA-B*35:01, 623 nM; with HLA-B*39:01, 18.8 nM; with HLA-B*40:01 [10] it was not below 20000 nM. The Kd with HLA-B*45:06 was not below 5000 nM; with HLA-B*46:01, not below 20000 nM; with HLA-B*48:01 it was not below 20000 nM; in the experiment with HLA-B*51:01, not below 20000 nM; with HLA-B*57:01, not below 20000 nM; in the experiment with HLA-B*58:01 [11] it was not below 20000 nM. This sequence returned a Kd in the experiment with HLA-B*83:01 of 762 nM.
With QQITQTEV, the Kd with HLA-B*52:01 is not below 30200 nM.
In the case of KLYERNTAF, the Kd is not below 20000 nM in the experiment with HLA-A*01:01 [12]; 286 nM with HLA-A*02:01 [13]; 27 nM in the experiment with HLA-A*02:03 [14]; 9 nM with HLA-A*02:11; 88 nM in the experiment with HLA-A*02:12; not below 5000 nM with HLA-A*02:19. In addition, the Kd is 511 nM with HLA-A*03:01 [15]; 3990 nM in the experiment with HLA-A*11:01 [16]; not below 20000 nM with HLA-A*26:01; 138 nM in the experiment with HLA-A*31:01 [17]; not below 20000 nM in the experiment with HLA-A*69:01 [18]; not below 20000 nM in the experiment with HLA-B*07:02. The Kd with HLA-B*08:01 was 112 nM; with HLA-B*15:01 [19] it was 57.8 nM; with HLA-B*27:05 [20], 325 nM; with HLA-B*40:01 [21] it was not below 20000 nM; with HLA-B*44:02 it was not below 20000 nM; in the experiment with HLA-B*58:01 [22] it was 284 nM. Also, the Kd in the experiment with HLA-C*12:03 stood at 266 nM.
GSFSRFYSL gave an IC50 with HLA-B*40:02 of 300 nM.
In the experiment with HLA-A*02:01 [23], FLMDFIHQV showed an IC50 of 240 nM.
As for GSAAICGKY, in the experiment with HLA-B*27:05 [24], the IC50 came out at 4820 nM.

The values are drawn from the Immune Epitope Database (IEDB).
